Each block holds one molecule with its values, some of them ahead of it.
What was measured:
human CD105 = molecular target: T1, human CD105 (Homo sapiens, UniProt P17813); assay: Competition ELISA against biotinylated TRC205 antibody for binding to human CD105; details: biotinylated TRC205 55 ng/ml
T1 construct: purchased R&D Systems 1097-EN
T1 sequence (P17813 26-586 limits assumed): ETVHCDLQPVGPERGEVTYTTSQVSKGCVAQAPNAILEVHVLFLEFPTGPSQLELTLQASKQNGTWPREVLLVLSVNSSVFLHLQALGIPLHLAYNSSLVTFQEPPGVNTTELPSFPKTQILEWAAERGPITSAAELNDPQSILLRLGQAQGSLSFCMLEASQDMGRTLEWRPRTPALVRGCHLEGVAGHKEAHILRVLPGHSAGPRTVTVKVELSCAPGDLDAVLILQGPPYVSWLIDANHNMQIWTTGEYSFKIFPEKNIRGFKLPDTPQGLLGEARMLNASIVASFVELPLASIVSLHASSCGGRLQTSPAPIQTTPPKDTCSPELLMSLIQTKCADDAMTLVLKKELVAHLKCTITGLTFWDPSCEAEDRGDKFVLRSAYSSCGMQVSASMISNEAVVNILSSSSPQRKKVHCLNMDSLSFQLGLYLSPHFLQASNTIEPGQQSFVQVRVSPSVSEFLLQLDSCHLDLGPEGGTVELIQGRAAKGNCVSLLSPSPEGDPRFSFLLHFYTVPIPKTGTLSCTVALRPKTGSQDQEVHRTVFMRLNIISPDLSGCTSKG
Method: After washing three times with PBST, a three-fold dilution series of either human BMP9 (R&D Systems Cat. No. 3209-BP-010) (413 nM to 0.56 nM), or unlabelled TRC205 antibody (40 nM to 0.05 nM) or a single concentration of an irrelevant antibody (66 nM) was mixed with a fixed concentration of biotinylated TRC205 antibody (55 ng/ml) and added to the plate. Following incubation for 1 hour at room temperature, the plate was washed three times with PBST and binding of the biotinylated TRC205 antibody was detected using streptavidin-HRP (Sigma Cat. No. 55512) and TMB substrate (Sigma Cat. No. T0440). OD450 nm values were measured on a Dynex MRX TCII plate reader.

[1] = system: peripheral blood mononuclear cells (PBMCs); assay: EpiScreen time course T cell proliferation assay with intact anti-endoglin antibodies; type: cell-based, human; details: of 20 donors; 50 μg/mL antibody; SI≥2 (borderline ≥1.90), p<0.05
Excerpt: This example describes a method of screening anti-endoglin antibodies for T-cell epitopes. The interaction between MHC, polypeptide and T cell receptor (TCR) provides the structural basis for the antigen specificity of T cell recognition. T cell proliferation assays test the binding of polypeptides processed from antibodies to MHC and the recognition of MHC/polypeptide complexes by the TCR. In vitro T cell proliferation assays of the present example, involve the stimulation of peripheral blood mononuclear cells (PBMCs), containing antigen presenting cells (APCs) and T cells. Stimulation is conducted in vitro using intact anti-endoglin antibodies. Stimulated T cell proliferation is measured using ^3H-thymidine (^3H-Thy) and the presence of incorporated ^3H-Thymidine is assessed using scintillation counting of washed fixed cells.
Anti-endoglin antibodies were purified from the supernatants of mammalian cultures by protein A chromatography. Buffer exchange and protein concentration was done using PBS pH=7.4. Anti-endoglin antibody was further purified by size exclusion chromatography using a Sephacryl S200 column (GE Healthcare, AMersham, UK). The major peak is collected, filter sterilized and shown to have endotoxin levels <5 EU/mg using an Endosafe-PTS (Charles River, Margate, UK). The purified antibodies are stored at 4 degrees Celsius. Final concentrations were determined by UV absorption using calculated molar extinction coefficients, where A280 1.0=1.62 mg/mL. Each antibody was then diluted to 100 μg/mL in AIMV culture medium.
Peripheral Blood Mononuclear cells (PBMC) are isolated from healthy community donor buffy coats (from blood drawn within 24 hours) which are obtained from the UK National Blood Transfusion Service (Addenbrooke's Hospital, Cambridge, UK) according to approval granted by Addenbrooke's Hospital Local Research Ethics Committee. PBMC are isolated from buffy coats by Lymphoprep (Axis-shield, Dundee, Scotland) density centrifugation and CD8+ T cells are depleted using CD8+ RossetteSep™ (StemCell Technologies, Inc.). Donors are characterized by identifying HLA-DR haplotypes using a Biotest HLA SSP-PCR based tissue-typing kit (Biotest, Landsteinerstralβe, […]). T cell responses to a control antigen, Keyhole Limpet Haemocyanin (KLH) (Pierce, Rockford, Ill., USA) are determined for a positive control. PBMC were then frozen and stored in liquid nitrogen until required. When required for use, cells are thawed rapidly in a water bath at 37° C. before transferring to 10 ml pre-warmed AIM V medium.
A cohort of 20 donors is selected to best represent the number and frequency of HLA-DR allotypes expressed in the world population. […]
PBMCs from each donor are thawed, counted and viability assessed. […]

human endoglin = molecular target: T2, human endoglin (Homo sapiens, UniProt P17813); assay: BIAcore (surface plasmon resonance) analysis of anti-endoglin antibody binding; details: antibody captured on protein A chip, 25 degrees Celsius
T2 sequence (P17813 26-658): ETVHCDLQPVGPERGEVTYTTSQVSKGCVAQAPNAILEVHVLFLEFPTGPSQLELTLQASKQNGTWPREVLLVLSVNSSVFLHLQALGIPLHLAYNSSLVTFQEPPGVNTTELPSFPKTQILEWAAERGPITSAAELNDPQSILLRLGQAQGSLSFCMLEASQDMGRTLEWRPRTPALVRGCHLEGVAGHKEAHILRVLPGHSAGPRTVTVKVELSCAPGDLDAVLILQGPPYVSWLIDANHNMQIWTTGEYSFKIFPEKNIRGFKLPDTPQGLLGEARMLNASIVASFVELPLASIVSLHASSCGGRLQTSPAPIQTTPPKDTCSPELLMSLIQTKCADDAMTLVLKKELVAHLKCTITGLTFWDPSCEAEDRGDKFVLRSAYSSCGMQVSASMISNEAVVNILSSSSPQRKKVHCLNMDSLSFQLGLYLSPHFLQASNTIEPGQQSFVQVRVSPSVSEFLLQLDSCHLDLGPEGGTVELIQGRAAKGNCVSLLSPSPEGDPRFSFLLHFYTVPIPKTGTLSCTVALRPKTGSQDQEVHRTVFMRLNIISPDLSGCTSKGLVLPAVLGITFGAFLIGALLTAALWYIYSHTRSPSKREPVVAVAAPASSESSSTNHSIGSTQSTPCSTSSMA
Method: Affinity of antibodies can be assessed using, for example, BIAcore analysis using standard protocols. Briefly, protein A is chemically coupled to a BIAcore CM5 chip, with the amount of protein A immobilized corresponding to 2000 RU. Subsequent steps are performed in a running buffer of 10 mM HEPES, 150 mM NaCl, 3 mM EDTA, 0.05% TWEEN, pH=7.4, at 25 degrees Celsius using a 10 Hz data collection rate. Anti-endoglin antibody (10 nM) is captured at a 10 μL/min flow rate by the immobilized protein A on the BIAcore chip: typically, capture times of 20, 40 and 80 seconds allow the capture of antibody densities corresponding to 130 RU, 330 RU and 570 RU, respectively. Start-up cycles are performed using running buffer at a flow rate of 40 μL/min, a contact time of 90 seconds and a dissociation time of 90 seconds. Sample cycles are performed using recombinant endoglin at concentrations ranging from 0 to 40 nM. Endoglin is passed over the BIAcore chip containing captured antibody at a flow rate of 40 μL/min with a contact time of 525 seconds and dissociation time of 2500 seconds. Eight sample cycles are typically performed at each antibody capture density. Regeneration of the chip is accomplished using 10 mM glycine pH=1.7. Data analysis is performed using BIAcore T100 Evaluation Software v1.1 Signals generated using BIAcore chips with different captured antibody densities are compared and data generated in the absence of recombinant endoglin are used to adjust for the intraassay blank signal. For fitting of the data, the Rmax is allowed to float to account for variation in capture levels of each antibody in each cycle. Data from each capture density is fitted simultaneously during analysis of each antibody. BIAcore data are presented in Table 2 for chimeric, humanized and deimmunized anti-endoglin antibodies, including ka (1/Ms), kd (1/s), KD (M) and Chi^2 (RU^2).

IC50 of competition with biotinylated TRC205 antibody (human CD105): 0.35 µg/mL
Molecule: BMP9: human BMP9 (R&D Systems Cat. No. 3209-BP-010), endoglin ligand [reference compound]

ka (human endoglin): 46000 M⁻¹ s⁻¹
kd (human endoglin): 3.25e-05 s⁻¹
B1: VK1AAVH1A2: humanized/deimmunized anti-endoglin IgG1; light chain SEQ ID NO: 93 (VK1AA), heavy chain SEQ ID NO: 89 (VH1A2) (antibody, V domains shown)
VH: EVQLVESGGGLVKPGGSLRLSCAASGFTFSDAWMDWVRQAPGKGLEWVGEARSKASNHATYYAESVKGRFTISRDDSKNTLYLQMNSLKTEDTAVYYCTRWRRFFDSWGQGTLVTVSS
VL: DIQMTQSPSSLSASVGDRATITCRASSSVSYMHWYQQKPGKAPKPWAYATSNLASGVPSRFSGSGSGTDYTLTISSLQPEDFATYYCQQWSSNPLTFGGGTKVEIK
Donors with positive T cell proliferation responses [1]: none of the donors in the study cohort responded positively

From patent US9926375B2, “Anti-endoglin antibodies and uses thereof” (Tracon Pharmaceuticals, Inc., priority 2014, dated 2018)
